In patent publication US20160000860A1 (University of California, published 2016):
Bridges are numbered along the chain shown (N, C = ends). Where no end group is shown, it is not given here.

T1: recombinant human osteogenic protein-1 (rhOP-1, rhBMP-7) (human, UniProt P18075 293-431)
T1 construct: Amine-coupled to a CM-5 sensor chip
T1 sequence (looked up): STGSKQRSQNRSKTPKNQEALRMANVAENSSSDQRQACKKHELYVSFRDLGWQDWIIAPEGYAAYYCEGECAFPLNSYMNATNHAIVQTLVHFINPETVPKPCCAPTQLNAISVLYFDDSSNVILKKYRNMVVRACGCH

T2: spp24 (secreted phosphoprotein, 24 kD), the parental protein of BBP (Bos taurus (Bovine), UniProt Q27967 24-203)
T2 construct: also called the related protein
T2 sequence: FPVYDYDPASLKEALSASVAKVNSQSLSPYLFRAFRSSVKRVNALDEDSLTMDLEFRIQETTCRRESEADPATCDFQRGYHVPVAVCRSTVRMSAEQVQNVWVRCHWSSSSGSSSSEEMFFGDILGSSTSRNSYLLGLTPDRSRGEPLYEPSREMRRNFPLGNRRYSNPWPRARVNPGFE

B1: recombinant human bone morphogenetic protein-2 (rhBMP-2) (ligand, UniProt P12643 283-396, looked up)
chain: QAKHKQRKRLKSSCKRHPLYVDFSDVGWNDWIVAPPGYHAFYCHGECPFPLADHLNSTNHAIVQTLVNSVNSKIPKACCVPTELSAISMLYLDENEKVVLKNYQDMVVEGCGCR
notes: Amine-coupled to a CM-5 sensor chip

Columns and labels:
[1] = target: B1; experiment: SPR (Biacore X), rhBMP-2 on CM-5 chip, peptide as analyte; rhBMP-2 affixed to the chip; cyclized BBP, not reduced
[2] = target: B1; experiment: SPR (Biacore X), ligand amine-coupled to CM-5 chip, Langmuir analysis
Experimental: (§1) The supernatant was decanted and used for analyses. Protein concentrations were determined using UV spectroscopy at an absorbance of 280 nm. Extinction coefficients were calculated using ProtParam tool (www.expasy.ch/tools/protparam.html). Flow rates ranged from 5 to 50 μl/min, and injection volumes were 20 to 100 μl. To ensure uniformity, an effort was made to react sufficient ligand to the chip to give a baseline value of about 2500 RU (response units). The kinetic constants kₐ (on rate, association constant, “recognition”) and kd (off rate, dissociation constant, “stability”) as well as the equilibrium constant KD (equilibrium constant, “affinity”) were determined by a Langmuir analysis using BIAevaluation software (version 3.2) installed on the instrument by the manufacturer.

[3] = target: recombinant human transforming growth factor-beta (rhTGF-β) (human); experiment: as above
Experimental: as §1

[4] = target: T1, recombinant human osteogenic protein-1 …; experiment: as above
Experimental: as §1

[5] = target: B1; experiment: cell-based or functional assay
[6] = target: T2, spp24 (secreted phosphoprotein, 24 kD), …; experiment: SPR (Biacore X), ligand amine-coupled to CM-5 chip, Langmuir analysis
Experimental: as §1

Sequence of recombinant human transforming growth factor-beta (rhTGF-β) (human) (P01137 279-390): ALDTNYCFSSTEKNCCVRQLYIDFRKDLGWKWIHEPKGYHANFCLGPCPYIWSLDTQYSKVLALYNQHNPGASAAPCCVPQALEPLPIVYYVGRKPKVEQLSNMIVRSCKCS

Binder	Kd [1]	Kd [2]	Kd [3]	Kd [4]	retention of labeled rhBMP-2 in collagen sponge implants in rodent muscle pouches [5]	Kd [6]	koff [6]	kon [6]
CRSTVRMSAEQVQNVWVRC (disulfide 1-19 (inferred), it is treated here as the same bovine cyclic peptide; also called cyclized BBP) [BMP Binding Peptide (BBP), cyclized synthetic 19 amino acid peptide]	~30000 nM	53.3 nM	68 nM	1160 nM	~2 fold			
B1						17.7 nM	0.0055 s⁻¹	311000 M⁻¹ s⁻¹
